These results are taken from patent US20250312444A1 (BEIJING TUO JIE BIOPHARMACEUTICAL, published 2025).

For assay [1], the target named is T1, monkey serum albumin (CySA) (monkey).
T1 chain: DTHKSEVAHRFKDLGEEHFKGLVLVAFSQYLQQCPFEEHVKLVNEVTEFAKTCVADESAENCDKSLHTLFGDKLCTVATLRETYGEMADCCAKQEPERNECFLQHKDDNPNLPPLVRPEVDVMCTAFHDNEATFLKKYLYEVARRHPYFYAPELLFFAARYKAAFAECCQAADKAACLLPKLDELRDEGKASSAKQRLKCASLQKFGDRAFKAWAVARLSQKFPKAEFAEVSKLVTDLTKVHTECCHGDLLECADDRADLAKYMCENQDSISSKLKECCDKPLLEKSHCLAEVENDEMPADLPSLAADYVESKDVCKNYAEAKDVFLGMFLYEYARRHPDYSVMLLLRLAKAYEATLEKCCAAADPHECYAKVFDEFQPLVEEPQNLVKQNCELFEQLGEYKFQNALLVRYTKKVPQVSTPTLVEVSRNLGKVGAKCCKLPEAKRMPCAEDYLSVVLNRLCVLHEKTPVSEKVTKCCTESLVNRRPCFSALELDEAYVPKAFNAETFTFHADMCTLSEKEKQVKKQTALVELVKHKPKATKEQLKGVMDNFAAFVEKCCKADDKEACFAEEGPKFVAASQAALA
Put plainly: phage supernatant ELISA, albumin coated.

Assay [2] concerns the target human serum albumin (HSA) (human). Briefly: phage supernatant ELISA, albumin coated. For orientation: ELISA stands for enzyme-linked immunosorbent assay.
Assay [3] concerns the target mouse serum albumin (mSA) (mouse). Briefly: phage supernatant ELISA, albumin coated.
Assay [4] deals with T1, monkey serum albumin (CySA). Put plainly: SPR Biacore T200, antibody captured by anti-His, albumin as analyte. Here is the method: (§1) The affinity constants of the 6His-tagged humanized anti-HSA antibodies for human, monkey and mouse albumins were determined using a Biacore T200 (GE Healthcare) instrument. Firstly, amino coupling was performed on a CM5 S series chip (GE, Cat. 29-1049-88) by using an amino coupling kit (GE, Cat. BR-1000-50) and a His capture kit (GE, Cat. 28-9950-56) according to the kit manuals. The surface response value reached about 10000 RU. The chip was then blocked with ethanolamine for later use. The 6His-tagged humanized anti-HSA antibodies were each captured onto the anti-his chip through affinity. Then, different concentrations of human, monkey and mouse albumins were flowed over the surface of the chip, and the reaction signals were detected in real-time using the Biacore instrument to obtain the association and dissociation curves. Finally, fitting was performed with a Langmuir 1:1 binding model using BIAevaluation version 4.1, GE software to obtain the affinity constants. The buffer used in the experiment was an HBS-EP solution (10 mM HEPES, 150 mM NaCl, 3 mM EDTA, 0.05% P20, pH 7.4, GE, Cat. #BR-1006-69). After the end of each cycle, the chip was regenerated using glycine-hydrochloric acid (pH 1.5) (GE, Cat. #BR-1003-54).

Assay [5] addresses human serum albumin (HSA) (human). Described as above. Here is the method:
as §1

In assay [6] the target is mouse serum albumin (mSA) (mouse). Described as above. Here is the method:
as §1

Assay [7] concerns the target T1, monkey serum albumin (CySA). The assay is described as above. Here is the method:
(§2) The anti-HSA antibody 7_Hu_10-6his was transiently expressed in HEK293E cells. After affinity purification with a nickel column, the affinity constants of the antibody for human, monkey, mouse, rat, dog and rabbit albumins were determined using a Biacore T200 (GE Healthcare) instrument. Firstly, amino coupling was performed on a CM5 S series chip (GE, Cat. 29-1049-88) by using an amino coupling kit (GE, Cat. BR-1000-50) and a His capture kit (GE, Cat. 28-9950-56) according to the kit manuals. The surface response value reached about 10000 RU. The chip was then blocked with ethanolamine for later use. The 6His-tagged humanized anti-HSA antibodies were each captured onto the anti-his chip through affinity. Then, different concentrations of human, monkey, mouse, rat, dog and rabbit albumins were flowed over the surface of the chip, and the reaction signals were detected in real-time using the Biacore instrument to obtain the association and dissociation curves. Finally, fitting was performed with a Langmuir 1:1 binding model using BIAevaluation version 4.1, GE software to obtain the affinity constants. The buffer used in the experiment was an HBS-EP solution (10 mM HEPES, 150 mM NaCl, 3 mM EDTA, 0.05% P20, pH 7.4, GE, Cat. #BR-1006-69). 20 After the end of each cycle, the chip was regenerated using glycine-hydrochloric acid (pH 1.5) (GE, Cat. #BR-1003-54).

For assay [8], the target named is T2, rat serum albumin (rat).
T2 chain: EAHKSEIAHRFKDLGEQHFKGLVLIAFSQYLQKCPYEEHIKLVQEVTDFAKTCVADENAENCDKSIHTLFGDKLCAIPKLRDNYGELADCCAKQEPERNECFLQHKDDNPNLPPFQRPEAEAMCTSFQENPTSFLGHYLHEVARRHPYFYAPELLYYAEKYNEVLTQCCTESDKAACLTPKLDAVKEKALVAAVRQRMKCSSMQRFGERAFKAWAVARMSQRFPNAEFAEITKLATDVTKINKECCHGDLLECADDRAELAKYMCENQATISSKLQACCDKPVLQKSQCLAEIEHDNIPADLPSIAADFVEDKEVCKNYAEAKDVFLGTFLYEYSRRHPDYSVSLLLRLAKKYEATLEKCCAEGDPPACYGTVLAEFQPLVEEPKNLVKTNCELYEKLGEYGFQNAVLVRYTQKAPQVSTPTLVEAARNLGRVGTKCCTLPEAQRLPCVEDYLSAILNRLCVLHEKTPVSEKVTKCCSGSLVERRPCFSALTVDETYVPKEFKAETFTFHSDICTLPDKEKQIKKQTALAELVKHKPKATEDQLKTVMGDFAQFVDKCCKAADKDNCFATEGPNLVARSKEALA
The assay is described as above. The protocol:
as §2

The target in assay [9] is T3, dog serum albumin (dog, UniProt P49822 25-608).
T3 construct: also called Dog SA; dog albumin
The assay is described as above. Here is the method: as §2

Assay [10] concerns the target T4, rabbit serum albumin (rabbit, UniProt P49065 25-608).
T4 construct: also called Rabbit SA; rabbit albumin
The assay is described as above. Here is the method:
as §2

Assay [11] deals with human serum albumin (HSA) (human). The assay is described as above. The protocol:
as §2
The source holds these as a separate data set.

The target in assay [12] is mouse serum albumin (mSA) (mouse). Described as above. The protocol: as §2
The source holds these as a separate data set.

Where two headings read alike, the source gives them in different places.

B1: #7aHSA (VHH)
VHH: HVQLVESGGGSVQAGGSLRVSCVASGNTYLTSCMGWFRQAPGKEREGVASIYTVGGSTFYTNSVKGRFTISRDNAKNTVYLQMNSLQPEDTAMYYCAAGSPARCRLRDPTTFDYWGQGTQVTVSS
notes: also called clone #7
As to B1, the values for the OD450 in assay [1], in assay [2] and in assay [3] were 1.75 OD450, 1.69 OD450 and 1.12 OD450, respectively.

B2: #7_Hu_10-6His (VHH)
VHH: EVQLLESGGGLVQPGGSLRLSCAASGFTFLTSCMGWFRQAPGKEREGVSSIYTVGGSTFYTNSVKGRFTISRDNSKNTLYLQMNSLRAEDTAVYYCAAGSPARCRLRDPTTFDYWGQGTLVTVSS
In the case of B2, the Kd – broadly, the free concentration of one partner at which half of the binding sites on the other are occupied at equilibrium, for simple one-to-one binding – in assay [4] stood at 31 nM; in assay [5], 11.5 nM; in assay [6], 328 nM; in [7], 14.5 nM; in assay [8] it was 158 nM; in assay [9], 342 nM. Further, the results for the Kd in assay [11] and in assay [12] were 10.6 nM and 653 nM, respectively. Also, the koff (usually a measure of how fast the partners let go of each other) in assay [4] was 0.000545 s⁻¹; in assay [5], 0.000347 s⁻¹; in [6] it was 0.0196 s⁻¹; in assay [7], 0.000697 s⁻¹; in assay [8], 0.00461 s⁻¹; in assay [9], 0.0211 s⁻¹. In addition, the results for the off-rate (koff) in [11] and in assay [12] were 0.000683 s⁻¹ and 0.0254 s⁻¹, respectively. Moreover, the kon (usually the second-order rate constant of association) was found to be 17600 M⁻¹ s⁻¹ in assay [4]; 30100 M⁻¹ s⁻¹ in [5]; 59700 M⁻¹ s⁻¹ in [6]; 47900 M⁻¹ s⁻¹ in [7]; 29200 M⁻¹ s⁻¹ in assay [8]; 61700 M⁻¹ s⁻¹ in assay [9]. Further, the kon stood at 64700 M⁻¹ s⁻¹ in assay [11] and 38900 M⁻¹ s⁻¹ in assay [12]. Also, the binding result in [10] is recorded as “no binding”.

B3: #9aHSA (VHH)
VHH: DVQLVESGGGSVQAGGSLRLSCAAAEYTYLNSCLGWFRQAPGKEREGVATIYMVGGSTFYADSVKGRFTISRDNAKNTVYLMMNSLKPEDTAMYYCAAGSPARCLRRDPTTFNYWGQGTQVTVSS
notes: also called clone #9
For B3, the OD450 in [1] was 1.82 OD450; in [2], 1.52 OD450; in assay [3], 1.09 OD450.
